Test results from the DeepSol protein solubility set.

Test: soluble on expression in E. coli; label from the status in PepcDB or PDB records

Row | Sequence | soluble on expression in E. coli
1 | MAAAKVALTKRADPAELRTIFLKYASIEKNGEFFMSPNDFVTRYLNIFGESQPNPKTVELLSGVVDQTKDGLISFQEFVAFESVLCAPDALFMVAFQLFDKAGKGEVTFEDVKQVFGQTTIHQHIPFNWDSEFVQLHFGKERKRHLTYAEFTQFLLEIQLEHAKQAFVQRDNARTGRVTAIDFRDIMVTIRPHVLTPFVEECLVAAAGGTTSHQVSFSYFNGFNSLLNNMELIRKIYSTLAGTRKDVEVTKEEFVLAAQKFGQVTPMEVDILFQLADLYEPRGRMTLADIERIAPLEEGTLPFNLAEAQRQKASGDSARPVLLQVAESAYRFGLGSVAGAVGATAVYPIDLVKTRMQNQRSTGSFVGELMYKNSFDCFKKVLRYEGFFGLYRGLLPQLLGVAPEKAIKLTVNDFVRDKFMHKDGSVPLAAEILAGGCAGGSQVIFTNPLEIVKIRLQVAGEITTGPRVSALSVVRDLGFFGIYKGAKACFLRDIPFSAIYFPCYAHVKASFANEDGQVSPGSLLLAGAIAGMPAASLVTPADVIKTRLQVAARAGQTTYSGVIDCFRKILREEGPKALWKGAGARVFRSSPQFGVTLLTYELLQRWFYIDFGGVKPMGSEPVPKSRINLPAPNPDHVGGYKLAVATFAGIENKFGLYLPLFKPSVSTSKAIGGGP | not soluble
2 | SDPVVLSYMDSLLRQSDVSLLDPPSWLNDHIIGFAFEYFANSQFHDCSDHVSFISPEVTQFIKCTSNPAEIAMFLEPLDLPNKRVVFLAINDNSNQAAGGTHWSLLVYLQDKNSFFHYDSHSRSNSVHAKQVAEKLEAFLGRKGDKLAFVEEKAPAQQNSYDCGMYVICNTEALCQNFFRQQTESLLQLLTPAYITKKRGEWKDLIATLAKK | soluble
3 | MASENNGSRSDSESITAPKADSTVVEPRKIALITGITGQDGSYLTEFLLGKGYEVHGLIRRSSNFNTQRINHIYIDPHNVNKALMKLHYADLTDASSLRRWIDVIKPDEVYNLAAQSHVAVSFEIPDYTADVVATGALRLLEAVRSHTIDSGRTVKYYQAGSSEMFGSTPPPQSETTPFHPRSPYAASKCAAHWYTVNYREAYGLFACNGILFNHESPRRGENFVTRKITRALGRIKVGLQTKLFLGNLQASRDWGFAGDYVEAMWLMLQQEKPDDYVVATEEGHTVEEFLDVSFGYLGLNWKDYVEIDQRYFRPAEVDNLQGDASKAKEVLGWKPQVGFEKLVKMMVDEDLELAKREKVLVDAGYMDAKQQPLEHHHHHH | soluble
4 | MEDKATQTPEQTFSMEAALQETEARLEKRVRPGQILTGKVVLVGSEGVAVDIGAKTEGIIPFNQLTTKPLSEEELRNLLSPGDEVKVQVLRVDPETGQILLSRKKIEAQEKWDRIQELYEKGEPVTVTIKERVKGGVVAELDGVQGFMPASQLDLRRVPNLDEFVGQQVLAKIIEFHRRKGRVILSRRAVLEEEQKKAREAFLKSLEPGQVVEGTVVEVTDFGVFVNLGPVDGLVHRSEITWGRFNHPREVIQKGQKVKAQVLSVDPEKERVNLSIKALIPDPWTTVAEKYPVGTRVRGKVVGLTQFGAFVEVEPGLEGLIHISELSWTKRPKHPSEVVKEGDEVEAVVLRLDPEERRLSLGLKQTQPDPWQQLTEKYPPGTVLKGKVTGVTDFGVFVEIEPGIEGLVHVSELDHKRVENPAALFKKGDEMEVVVLNIDPVEQRVSLSRKRLLPPPLPQEEERPRRARSGKERARRKGAPRREDRREYEYGAVAEYNLYDASSVPTTTATVKLGDLYGDLLASLGLEEEAEEKSRG | soluble
5 | MASISRFRGCLAGALLGDCVGAVYEAHDTVSLASVLSHVESLEPDPGTPGSARTETLYYTDDTAMTRALVQSLLAKEAFDEVDMAHRFAQEYKKDPDRGYGAGVITVFKKLLNPKCRDVYEPARAQFNGKGSYGNGGAMRVAGISLAYSSVQDVQKFARLSAQLTHASSLGYNGAILQALAVHLALQGVSSSEHFLEQLLGHMEELEGDAQSVLDAKELGMEERPYSSRLKKVGELLDQDVVSREEVVSELGNGIAAFESVPTAIYCFLRCMEPHPEIPSTFNSLQRTLIYSISLGGDTDTIATMAGAIAGAYYGMEQVPESWQQSCEGFEETDVLAQSLHRVFQES | soluble
6 | MAGWVNPSFDREKLRSVIDSAERVLSERDKAREEAIRLARDVVRYSGWAVTAVHKGSLEEAEGHLARAEEAAGMLRSILEPYPDLMTAGFANNAFSEYVEARLFIDIITGRGLSSPDELRVPIVPYIQGLGDLVGELRRLSLELVRRGEFRKAWSLLDIMEAIYLELRSLDYPEALLPGVRHKADVARRLVDDTKAMLADLESRSQLEYRLKEVLKRLEA | soluble
7 | GSLNITENESISTAVIDAINSGATLKDINAIPDDMMDDIYSYAYDFYNKGRIEEAEVFFRFLCIYDFYNVDYIMGLAAIYQIKEQFQQAADLYAVAFALGKNDYTPVFHTGQCQLRLKAPLKAKECFELVIQHSNDEKLKIKAQSYLDAIQ | soluble
8 | MSLKSGTLRVWLFQEVNNKPKEKVVDAALADFEKAHADTKVTVEYIPVETRAQRIKAAFNDPKSAPDVVEFGNTDTAGYVKDGGLADISEEFAAWDEAKDADSTARQSVTVDGKVYGAPYFVGVRALYYRTDVFDELGLKAPRTLAELASTAKRVRAAKPDLYGLAVGGAYTYGAMPFIWANGGDIATGKGGSYASAIDSAAAQKGIKAYTSLFGDANCPAAKCAGMTGNDTVTAFASGKAAMAIGGDFSHQAMEAGAVKGKYAVVPLPGVEPGSIAPAFAGGNNIGVLKSTSHRTLAVDLMKRLASKKAQGELFDAMGFLPTFTDVRQQVAAREPFVKPFVDTLAAGTKFVPASPAWATIDSSLVLPTMFQEVVSGKKDVGAAAGDAARKMDDAFGSAGEGHHHHHH | soluble
9 | MKVRRTEQIYLKENDTISYMCHLSKNLYNQVNYILRQQFLKGEKLTGYRDLVKLFQEPSEIEDHNNYQRLPAQTAQWTVKKTVMAWYSFFKSMKAWKKHPDKFKGRPRLPGYKETDGEFLLVFTNQQCRIRDGILKFPKIMNMEVKTRLNENEIKLKEVRIVPQGTGYMIEIVYEKETADMPITKPKRAMGIDIGVRNLVTIGNNIHEIGIAVKAGLLKSINQYFNKELARYRSINDLQGNERKQTVKIRKLFMKRNRKVKDIMHKVSKSIVEYAKIMNIDTIVIGHNNRWKDSSNMGKKNNQNFVQLPFNMLIYQIKYKAEEIGITVIMQNEDYTSKCSFLDNESIEHHDTYMGKRIHRGIFRSATGKLIHADLQSSYNIIKKAIPEAFANGIEGIGLYPRSLSIRQMITSKGGCLEHHHHHH | not soluble
10 | MAHHHHHHMMKNTVRQFVKEITYLEVWEHFRRFGDAAGPDSVKCRLLCSDAVATQLNERIRMRYLLEQFLAQSSTTTSTGVAGEPRRWWEGDLTRCVDSDRRVLAETLLEDGWMLMQLNNCVSDREWLITTMTFQREKSTT | not soluble
11 | MGSDKIHHHHHHMLSLKSEVLARHLPLFNGKSILLFGNVRDRFADQIRSISSHVAIFSHYFDYARHYNDVEFGLDCTTPANLGVFYWTKNKQECHYQLLQWLSQTAIGQQMLIIGENRAGVRSVEKLLSPFGQIAKIDSARRCGLYHFELQTIPQFDCQKFWKSYRLADLTVLSLPAAFSSTELDAGSQLLLSSFTNQDRLTGNVLDLGCGAGVIGAYLKQRFPAISLTMSDIHSMAIHSAQATLAKNKLTGTVIASDVFSHINDRFDLIVSNPPFHDDIDTAYHTVESLIMQAKNHLNYGGELRIVANAFLPYPDLLDKAFGSHQVVTKSNKFKVYSARV | not soluble
12 | MGSDKIHHHHHHMRLSNGDVIVFAGDSITDREKSNNAPLGYGYVNLFYNLMLAKHPETKITVINSGISGNTVIDLIDRWDDDVLSYKPNWISILIGINDLHKFLGGLTTFNPENYYENLRRLLKYTRKVLNNVNFILMTPFYISRNKLEGGFRAKVLELLPQYIEKVRLLSNEFSATYIDLHDTFKKLVNIREPNVYAPEPVHPNFTGHMVIALKLLEALEI | not soluble
13 | TVSQLRSRITRFALAGRGMRETVTWSFISEKQALAFGGGQAQLKLVNPISADMSVMRPSLLPGLLVAAQRNADRGFPDFALFEVSNIYEDDTPDKQHRVAGGIRRGTEQFGGAGRFWNGNARAVDVFDAKADALAVLEACGLESGKVQIEVGAPDWYHPGRSGVIKLGSKIILGFFGVFHPATLEKLDISGPLCGFEIFL | not soluble
14 | MSLTFLTGVPGFLGTRLLRRLAAAAPDRSFLLLVQPKFEGRTHTLLADRGLADRATVLPGDITEPDLGLGAHYDAVAEQITRAVHLAAVYDLTIPREVGWQVNVEGTRHVLDLLAQCPSLERFGYVSSAYVSGERTGTIHEDELVHEAGFKNFYEETKYHAEVLVQDRMDEIPTLVFRPSIVVGDSETGATDKFDGVYFVLNALRSLPRYTPMTRIGSGTEPVNLVPVDFVVDAMGHLLGTEGHAGTVFHLTDPRPLTAQAIMELLADLLDKRVAYVPVPPGLARAMMKTGVGRALGLAPELIDYFDHPSHYDASNTRAALDGTGIDCPFLPDYAPAMVAYARRHDARSSAMYEGHHHHHH | not soluble
15 | AAIRHITTGTYIARIREEYQQTEVKPELQPMKEALARMTDRAEALIAFVTEQKDQELLDFQARRLVEMTAHAVFGHLLMLAANDDDSFRQSAEVYLRYGQAEQEKIDSYVRAFRPEELTFYSRCSRPE | soluble
16 | MSLAISQEQKQAIDQALTERLLHHPFYQEAKVIATYLSFSHEFQTRELIEQALKDGKKVLIPKTYPKGRMEFVAYDPQQLVKTSFALLEPQGDVEVVDASQIDLIHVPGLAFTTKGYRIGYGGGYYDRYLEHFSGRTLSTIYPCQIQDFIPENHDIPVQEVLIDEGNLEGHHHHHH | soluble
17 | MILKASKEALKEAVEILKKGGIIVAPTDTLYGILADATNEEAVKRLYKIRRPSGKPFLVLLPDESWLEKLCLDVKEEHKKLLKVEGLTLVFRKTCDKLDYVSKGTLAVRLPQKGFIRDLLSELKKPVVAPSVNPEGKKPAESVEEAYNYFGNKVDLYIDAGVIKGEPSTILDLTEGVKILREGKVKKEEIEKILNRKL | soluble
18 | MGSDKIHHHHHHMKKLLNTLYVTSENSYLGLDGENVVVYDDKNEIGRLPLHNLEAIISFGYRGTSPALMGACADRNISLCYLTPQGKFLARVSGKVKGNVVLRKQQFQSSSEDIKCLEIAKNCILGKVYNSRWVLERAIRDHSMQIDVDKVKKASIKLKEFLDYIQNSQSMNQLRGYEGEAASIYFGVFDELILQQKKDFFFQGRNRRPPLDNVNAMLSFTYTLLTTQITSALEVVGLDPYVGYMHTERPGRVSLSLDLIEELRAVMADRFVLSLINKKIVNGKSFTKKENGAVLMDTDIRKKLLSEWQNKKKEIITHPYLNEKVEWGMVPFVQAMLLARYLRGDLDEYPVFLWK | not soluble
19 | MSLDYHKQFIGELSQVSYHIIGYGSYYEEALIKYLGESIERYATVIAGDLLSDRIVYASYNELKLLHKVMPLEYLQVFTQEQIALSCDLQMMMCDKMVTENDVLGWVKCPMFFEDAEMYVPAQMLCVGYKTNETVGERRIIPGFSTGTASHKTLEAAMCNSLIEYIQIDSMMLSWYTKKPCPKIIVDDPDIEVILEEARLGKDSLYDIIPIDMTVGEDNPLYTFGIILKNKYDEGPYLLFGVQAGLDPKHALLRGIMEASAISYSYYYNLLYQKASLANIECEEPLFLDLDSNVFYYAHPKDQDHKWKAFEPLISGEVLLSDLEDHSGKDKKEDLKTLLAYAKKVSPNAVFLDITPPEALEKGWYVTRVLMPELLEMCIPAFPFANHPRMRQFGGVTNAFVHPMPEGHHHHHH | soluble
